Test results published in patent publication US20060216692, “Switchable nucleic acids for diagnostics, screening and molecular electronics” (published 2006).

T1: NCp7 (nucleocapsid protein, Zn2.NCp7(1-55)) (HIV-1, UniProt P35962 SEQ:1-55)
T1 chain: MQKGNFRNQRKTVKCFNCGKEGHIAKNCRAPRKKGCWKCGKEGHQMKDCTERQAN


Columns and labels:
[1] = molecular target: NCp7 (nucleocapsid protein, Zn2.NCp7(1-55)) (HIV-1) (UniProt P35962); conditions: Trp assay; virtually identical Kd to 20mer
[2] = molecular target: T1, NCp7 (nucleocapsid protein, …); assay: Trp37 quenching, 0.2 M NaCl; equivalent of three NCp7 bound with high affinity per RNA; conditions: about 3 per 154mer); SL1-SL4 stem-loops

Molecule | binding signal (fold of SL3 20mer) [1] | binding result [2]
SL3 16mer | 1 | –
154mer packaging domain (ssRNA) RNA: GGAGCUCUCUCGACGCAGGACUCGGCUUGCUGAAGCGCGCACGGCAAGAGGCGAGGGGCGGCGACUGGUGAGUACGCCAAAAAUUUUGACUAGCGGAGGCUAGAAGGAGAGAGAUGGGUGCGAGAGCGUCAGUAUUAAGCGGGGGAGAAUUAGA | – | binds
